This is an account of results in patent US20230228751 (APTAMER DIAGNOSTICS LIMITED, published 2023).

Changes are numbered by the printed parent chain.

B1: S1_D2 (ssDNA)
DNA: CCAGTGTAGACTACTCAATGCTAGGTCCGTGGGATGGGTGGGGGGGAGGACCAGCCAGCGAGTACTATCCACAGGTCAACC
B2: S1_D4 (ssDNA)
DNA: CCAGTGTAGACTACTCAATGCGGCTTCGGGAGGGGGGGCGGGTAAAAAGCCCATTGCCCTAGTACTATCCACAGGTCAACC
B3: S1_E9 (ssDNA)
DNA: B2 DNA with G29A, C50T
B4: S1_C4 (ssDNA)
DNA: CCAGTGTAGACTACTCAATGCTACTGATTCATCTGCCGAATCCAAACCCGACCAGTCCACGGTACTATCCACAGGTCAACC
B5: S1_B11-A (ssDNA)
DNA: CCAGTGTAGACTACTCAATGCGTGTGGTGACCTTGACCTTGGATTATGGGTTTGGGCGGGAGGGTACTATCCACAGGTCAACC
B6: S1_F5 (ssDNA)
DNA: B5 DNA with G29A, A61C
B7: S1_D8 (ssDNA)
DNA: CAGTGTAAGACTACTCAATGCCGTGGACTGGTCGGGTTTGGATTCGGCAGATGAATCAGTAGTACTATCCACAGGTCAACC
B8: S1_D1 (ssDNA)
DNA: CCAGTGTAGACTACTCAATGCATTCCTTTTGCTACCTATATTCCGTCTCCAGCATAATCCCGTACTATCCACAGGTCAACC
B9: S1_F3-A (ssDNA)
DNA: CCAGTGTAGACTACTCAATGCGGTATGAATATGATCGGCCCTATCCCTTCAGCTATTCCGGGTACTATCCACAGGTCAACC
B10: S1_C12 (ssDNA)
DNA: CCAGTGTAGACTACTCAATGCGTGGGAAGGGTGGGTGGGAGCATTGATAACTCGGAGGAGCGTACTATCCACAGGTCAACC
B11: S1_F12 (ssDNA)
DNA: B10 DNA with T32A, T36C
B12: S1_F3-B (ssDNA)
DNA: B10 DNA with A28T
B13: S1_C2 (ssDNA)
DNA: CCAGTGTAGACTACTCAATGCGGCTGTGTGACTTGACCTCTGGATATGGGTGGGAGGGATGGGTACTATCCACAGGTCAACC
B14: S1_E2 (ssDNA)
DNA: B13 DNA with G23T, C24G, T27G, G28T, T29G, G30A, A31C, A59G, T60C
B15: S1_F11 (ssDNA)
DNA: CCAGTGTAGACTACTCAATGCGTGGGAAGGGTGGGCGGGAGCATTGATAACTTCGGAGGAGCGTACTATCCACAGGTCAACC
B16: S1_E10 (ssDNA)
DNA: CCAGTGTAGACTACTCAATGCTGTGTTGACTTGACCTTGGATTATGGGTTTGGGCGGGAGGGTACTATCCACAGGTCAACC
B17: S1_C1-B (ssDNA)
DNA: CCAGTGTAGACTACTCAATGCCGCTTCTCGACCGCCCCTTGTTTTGGTTCTTTTGTCCGTAGTACTATCCACAGGTCAACC
B18: S1_C3-B (ssDNA)
DNA: CCAGTGTAGACTACTCAATGCCGATGGGTCGGGGGGGTGGGTAGGCATTGATCGCTCCTTCCGTACTATCCACAGGTCAACC
B19: S1_C11 (ssDNA)
DNA: CCAGTGTAGACTACTCAATGCCGTGGACTGGTCGGGTTTGGATTCGGCAGATGAATCCAGTAGTACTATCCACAGGTCAACC
B20: S2_B1_F12 (ssDNA)
DNA: CCAGTGTAGACTACTCAATGCCGTGGACTGGTCGGGTTTGGATTCGGCAGATGAATCAGTAGTA
B21: S2_A2_F12 (ssDNA)
DNA: CCAGTGTAGACTACTCAATGCCGATGGGTCGGGGGGGTGGGTAGGCATTGATCGCTCCTTTCGT
B22: S2_G1_F21 (ssDNA)
DNA: TTGACCTCTGGATATGGGTGGGAGGGATGGGT

In one series the target is SARS-CoV spike S1 subunit (SARS-CoV, UniProt P59594 SEQ:14-667). The experiment in a line: BLI. Conditions: tags: SinoBiological; label: 5' biotin.
With B1, the binding result is on record as “no binding”.

As to B2, the binding result is “no binding”.

With B3, the binding result was “no binding”.

Turning to B4, the binding result is reported as “no binding”.

In the case of B5, the binding result is given as “no binding”.

Regarding B6, the binding result is recorded as “no binding”.

Take B7: the binding result was “no binding”.

As for B8, the binding result was “no binding”.

As to B9, the binding result is on record as “no binding”.

With B10, the binding result is given as “no binding”.

Consider B11, for which the binding result is on record as “no binding”.

On to B12, for which the binding result is listed as “no binding”.

With B13, the binding result is “no binding”.

For the molecule B14, the binding result was “no binding”.

As for B15, the binding result is “no binding”.

For B16, the binding result is recorded as “no binding”.

For the molecule B17, the binding result is “no binding”.

In the case of B18, the binding result was “no binding”.

Regarding B19, the binding result is recorded as “no binding”.

Another series addresses SARS-CoV-2 spike S1 subunit (SARS-CoV-2, UniProt P0DTC2 SEQ:1-670). As to the kind of experiment: BLI. Conditions: tags: His tag, SinoBiological 40591-V08B1; label: 5'-biotin.
B1: the binding result is listed as “binds”.

As to B2, the binding result is “binds”.

Regarding B3, the binding result was “binds”.

As to B4, the binding result is “binds”.

B5: the binding result is “binds”.

Take B6: the binding result is recorded as “binds”.

Regarding B7, the binding result was “binds”.

For B8, the binding result is given as “binds”.

Turning to B9, the binding result is listed as “binds”.

B10: the binding result is reported as “binds”.

As for B11, the binding result is listed as “binds”.

Take B12: the binding result was “binds”.

Regarding B13, the binding result is given as “binds”.

On to B14, for which the binding result was “binds”.

B15: the binding result is reported as “binds”.

With B16, the binding result is listed as “binds”.

With B17, the binding result was “binds”.

On to B18, for which the binding result is recorded as “binds”.

For B19, the binding result is listed as “binds”.

The target of another series is SARS-CoV-2 spike RBD (SARS-CoV-2, UniProt P0DTC2 SEQ:1-223). As to the kind of experiment: BLI. Conditions: tags: His tag; SinoBiological 40592-V08H; label: 5' biotin.
In the case of B1, the binding result is “binds”.

Consider B2, for which the binding result is “binds”.

On to B3, for which the binding result is given as “binds”.

Turning to B4, the binding result is on record as “binds”.

On to B5, for which the binding result was “binds”.

Consider B6, for which the binding result is “binds”.

For B7, the binding result is “binds”.

As to B8, the binding result was “binds”.

As for B9, the binding result is reported as “binds”.

Take B10: the binding result is listed as “binds”.

In the case of B11, the binding result is given as “binds”.

As to B12, the binding result was “binds”.

In the case of B13, the binding result was “binds”.

With B14, the binding result is “binds”.

Turning to B15, the binding result is recorded as “binds”.

In the case of B16, the binding result is on record as “binds”.

Consider B17, for which the binding result was “binds”.

For B18, the binding result is reported as “binds”.

Turning to B19, the binding result is given as “binds”.

The next series concerns the target SARS-CoV-2 spike S2 subunit (SARS-CoV-2, UniProt P0DTC2 SEQ:1-528). As to the kind of experiment: BLI. As to conditions: label: 5'-biotin.
Consider B20, for which the binding result is “binds”.

On to B21, for which the binding result was “binds”.

With B22, the binding result is on record as “binds”.
